Assay results: IntAct's records for PubMed 35512704

B1: Speckle-type POZ protein (Homo sapiens), O43791 (parent)
chain: MSRVPSPPPPAEMSSGPVAESWCYTQIKVVKFSYMWTINNFSFCREEMGEVIKSSTFSSGANDKLKWCLRVNPKGLDEESKDYLSLYLLLVSCPKSEVRAKFKFSILNAKGEETKAMESQRAYRFVQGKDWGFKKFIRRDFLLDEANGLLPDDKLTLFCEVSVVQDSVNISGQNTMNMVKVPECRLADELGGLWENSRFTDCCLCVAGQEFQAHKAILAARSPVFSAMFEHEMEESKKNRVEINDVEPEVFKEMMCFIYTGKAPNLDKMADDLLAAADKYALERLKVMCEDALCSNLSVENAAEILILADLHSADQLKTQAVDFINYHASDVLETSGWKSMVVSHPHLVAEAYRSLASAQCPFLGPPRKRLKQS
partner: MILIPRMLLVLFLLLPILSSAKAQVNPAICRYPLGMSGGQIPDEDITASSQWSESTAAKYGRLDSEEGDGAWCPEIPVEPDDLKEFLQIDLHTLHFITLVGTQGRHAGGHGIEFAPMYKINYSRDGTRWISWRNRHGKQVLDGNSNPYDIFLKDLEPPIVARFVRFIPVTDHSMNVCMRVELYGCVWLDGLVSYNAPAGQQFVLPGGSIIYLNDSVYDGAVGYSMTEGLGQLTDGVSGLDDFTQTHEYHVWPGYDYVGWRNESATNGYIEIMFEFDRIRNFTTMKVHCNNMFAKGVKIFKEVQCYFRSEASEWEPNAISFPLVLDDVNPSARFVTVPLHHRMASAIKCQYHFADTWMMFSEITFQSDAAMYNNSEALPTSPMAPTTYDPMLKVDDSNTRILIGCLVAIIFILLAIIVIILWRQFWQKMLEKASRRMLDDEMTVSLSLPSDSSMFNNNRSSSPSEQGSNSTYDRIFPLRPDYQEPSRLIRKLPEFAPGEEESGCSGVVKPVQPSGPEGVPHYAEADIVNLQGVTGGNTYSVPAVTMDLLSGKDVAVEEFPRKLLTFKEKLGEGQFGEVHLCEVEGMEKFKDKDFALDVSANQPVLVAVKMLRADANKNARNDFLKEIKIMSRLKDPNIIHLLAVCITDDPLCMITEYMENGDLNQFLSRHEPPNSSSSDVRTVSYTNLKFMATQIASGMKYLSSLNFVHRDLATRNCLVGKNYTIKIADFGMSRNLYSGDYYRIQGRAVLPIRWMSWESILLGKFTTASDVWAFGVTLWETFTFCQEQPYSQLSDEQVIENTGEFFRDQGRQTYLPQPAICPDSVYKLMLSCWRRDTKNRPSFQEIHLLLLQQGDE
B2: Speckle-type POZ protein (Homo sapiens), O43791 (parent)
chain: B1 chain
partner: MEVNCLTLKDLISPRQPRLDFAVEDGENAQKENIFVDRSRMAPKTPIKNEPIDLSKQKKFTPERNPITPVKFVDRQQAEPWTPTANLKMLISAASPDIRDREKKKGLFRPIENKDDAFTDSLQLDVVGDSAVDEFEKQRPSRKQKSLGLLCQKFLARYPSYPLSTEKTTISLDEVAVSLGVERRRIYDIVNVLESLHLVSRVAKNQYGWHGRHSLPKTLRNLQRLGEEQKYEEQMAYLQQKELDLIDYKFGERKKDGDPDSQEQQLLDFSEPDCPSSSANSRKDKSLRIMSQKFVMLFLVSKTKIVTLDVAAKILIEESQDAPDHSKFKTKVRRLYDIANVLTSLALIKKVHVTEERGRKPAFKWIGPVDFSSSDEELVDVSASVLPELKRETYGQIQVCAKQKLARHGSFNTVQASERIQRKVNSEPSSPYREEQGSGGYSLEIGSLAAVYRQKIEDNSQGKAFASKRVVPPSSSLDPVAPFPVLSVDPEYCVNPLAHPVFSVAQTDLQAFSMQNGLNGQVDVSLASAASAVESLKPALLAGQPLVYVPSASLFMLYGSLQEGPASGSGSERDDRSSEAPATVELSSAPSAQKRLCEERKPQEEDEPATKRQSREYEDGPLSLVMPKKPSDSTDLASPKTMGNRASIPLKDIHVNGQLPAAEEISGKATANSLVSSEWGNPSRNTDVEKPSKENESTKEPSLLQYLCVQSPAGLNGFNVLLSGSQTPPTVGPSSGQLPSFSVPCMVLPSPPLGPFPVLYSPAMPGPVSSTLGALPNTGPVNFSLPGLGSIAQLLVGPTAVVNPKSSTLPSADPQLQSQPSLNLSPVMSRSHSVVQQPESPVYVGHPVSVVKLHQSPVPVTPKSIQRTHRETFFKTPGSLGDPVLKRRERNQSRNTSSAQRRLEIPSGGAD
B3: Speckle-type POZ protein (Homo sapiens), O43791 (parent)
chain: B1 chain
partner: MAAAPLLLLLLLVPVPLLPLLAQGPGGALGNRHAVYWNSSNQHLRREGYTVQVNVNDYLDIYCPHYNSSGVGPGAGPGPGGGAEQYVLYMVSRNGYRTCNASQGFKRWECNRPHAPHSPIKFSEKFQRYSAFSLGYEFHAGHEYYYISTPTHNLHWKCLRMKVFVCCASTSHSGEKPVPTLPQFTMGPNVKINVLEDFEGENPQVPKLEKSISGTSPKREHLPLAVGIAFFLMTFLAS
B4: Speckle-type POZ protein (Homo sapiens), O43791 (parent)
chain: B1 chain
partner: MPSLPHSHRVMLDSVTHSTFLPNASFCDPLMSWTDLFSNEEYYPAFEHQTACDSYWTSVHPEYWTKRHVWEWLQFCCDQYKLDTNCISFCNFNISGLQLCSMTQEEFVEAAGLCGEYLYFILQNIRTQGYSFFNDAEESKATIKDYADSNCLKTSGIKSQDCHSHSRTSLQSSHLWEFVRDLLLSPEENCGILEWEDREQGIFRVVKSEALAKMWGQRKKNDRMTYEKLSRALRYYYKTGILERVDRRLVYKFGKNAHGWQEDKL

Variants of: B1
Conditions: with ddr2_human DDR2, Q16832

Question: For F133V, which “effect of a mutation on the interaction” value is on record?
Answer: with no effect

Variants of: B2
Conditions: with e2f7_human E2F7, Q96AV8

Question: F102C was tested. Which “effect of a mutation on the interaction” value did it give?
Answer: with no effect

Variants of: B2
Conditions: with e2f7_human E2F7, Q96AV8
Remark: another data set of the same source

Question: How did the “effect of a mutation on the interaction” value turn out when F133L was run?
Answer: with no effect

Variants of: B2
Conditions: with e2f7_human E2F7, Q96AV8
Remark: another data set of the same source

Question: Which “effect of a mutation on the interaction” value does the source give for Y87C here?
Answer: with no effect

Variants of: B2
Conditions: with e2f7_human E2F7, Q96AV8
Remark: another data set of the same source

Question: F133V was tested. Which “effect of a mutation on the interaction” value did it give?
Answer: with no effect

Variants of: B3
Conditions: with efna3_human EFNA3, P52797

Question: F102C was tested. Which “effect of a mutation on the interaction” value did it give?
Answer: with no effect

Variants of: B3
Conditions: with efna3_human EFNA3, P52797
Remark: another data set of the same source

Question: Which “effect of a mutation on the interaction” value does the source give for F133L here?
Answer: with no effect

Variants of: B3
Conditions: with efna3_human EFNA3, P52797
Remark: another data set of the same source

Question: How did the “effect of a mutation on the interaction” value turn out when Y87C was run?
Answer: with no effect

Variants of: B3
Conditions: with efna3_human EFNA3, P52797
Remark: another data set of the same source

Question: F133V was tested. Which “effect of a mutation on the interaction” value did it give?
Answer: with no effect

Variants of: B4
Conditions: with elf5_human ELF5, Q9UKW6

Question: How did the “effect of a mutation on the interaction” value turn out when F102C was run?
Answer: with no effect

Variants of: B4
Conditions: with elf5_human ELF5, Q9UKW6
Remark: another data set of the same source

Question: For F133L, which “effect of a mutation on the interaction” value is on record?
Answer: with no effect
